Laboratory results from patent publication US20240092942A1.

What was measured:
[1] = target: huFcγRIIb on CHO^huFcγRIIb cells; experiment: flow cytometry on CHO^huFcγRIIb cells, anti-huCD32 mAb + PE-GAM F(ab')2; histogram peak at about 1.5e3; parental CHO cells: 86 printed
[2] = target: huEGFR on the cell surface (3T3^huEGFR, wild-type HEK293 (EGFR+), A431 cells) (human) (UniProt P00533); experiment: flow cytometry on 3T3^huEGFR cells, PE-conjugated anti-huEGFR mAb; histogram peak at about 2e3; parental 3T3 cells: 176 printed
[3] = target: huEGFR on the cell surface (3T3^huEGFR, wild-type HEK293 (EGFR+), A431 cells) (human) (UniProt P00533); experiment: flow cytometry on 3T3^huEGFR cells, PE-conjugated anti-huEGFR mAb; second number of the panel, given to the second cell line of the key (narrow histogram) [cont.) g, upper panel]
[4] = target: huEGFR on the cell surface (3T3^huEGFR, wild-type HEK293 (EGFR+), A431 cells) (human) (UniProt P00533); experiment: flow cytometry on MDA-MB-231 cells, PE-conjugated anti-huEGFR mAb; first number of the panel, given to the first cell line of the key (broad, most shifted histogram) [cont.) g, upper panel]
[5] = target: PD-L1 on MDA-MB-231 cells (Homo sapiens) (UniProt Q9NZQ7); experiment: flow cytometry on MDA-MB-231 cells, APC-conjugated anti-huPD-L1 mAb; histogram peak at about 3e3 against control at about 2.5e2; 3T3^huEGFR cells (PD-L1 negative): 0 printed [cont.) g, lower panel]
Sequence of PD-L1 on MDA-MB-231 cells (Homo sapiens) (Q9NZQ7 19-290 limits assumed): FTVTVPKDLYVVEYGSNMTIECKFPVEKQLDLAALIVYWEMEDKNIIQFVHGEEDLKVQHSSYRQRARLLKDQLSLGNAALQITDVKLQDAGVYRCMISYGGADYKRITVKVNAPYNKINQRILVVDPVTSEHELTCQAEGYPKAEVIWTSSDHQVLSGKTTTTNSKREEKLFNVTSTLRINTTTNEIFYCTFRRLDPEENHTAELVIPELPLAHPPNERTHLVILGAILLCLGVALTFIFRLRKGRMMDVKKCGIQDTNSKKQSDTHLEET

For “anti-huCD32 mAb (clone FUN-2); the sheet prints only the axis label huFcγRIIb (antibody)”, which MFI [1] is on record?
Its MFI is 1040.

With “anti-huEGFR PE-conjugated mAb (clone EGFR.1); the sheet prints only the axis label huEGFR (antibody)” as the substance, how does the MFI [2] read?
Its MFI is 1730.

What about the MFI [3] of the same substance?
The MFI was 1820.

And the MFI [4]?
The MFI was 5820.

With “anti-huPD-L1 APC-conjugated mAb (clone MIH1); the sheet prints only the axis label PD-L1 (antibody)” as the substance, how does the MFI [5] read?
The MFI was 3260.
